T1: Serum-derived human C1s (human, UniProt P09871 16-688)
T1 construct: The analyte was C1s purified from serum; also called hC1s
T1 sequence: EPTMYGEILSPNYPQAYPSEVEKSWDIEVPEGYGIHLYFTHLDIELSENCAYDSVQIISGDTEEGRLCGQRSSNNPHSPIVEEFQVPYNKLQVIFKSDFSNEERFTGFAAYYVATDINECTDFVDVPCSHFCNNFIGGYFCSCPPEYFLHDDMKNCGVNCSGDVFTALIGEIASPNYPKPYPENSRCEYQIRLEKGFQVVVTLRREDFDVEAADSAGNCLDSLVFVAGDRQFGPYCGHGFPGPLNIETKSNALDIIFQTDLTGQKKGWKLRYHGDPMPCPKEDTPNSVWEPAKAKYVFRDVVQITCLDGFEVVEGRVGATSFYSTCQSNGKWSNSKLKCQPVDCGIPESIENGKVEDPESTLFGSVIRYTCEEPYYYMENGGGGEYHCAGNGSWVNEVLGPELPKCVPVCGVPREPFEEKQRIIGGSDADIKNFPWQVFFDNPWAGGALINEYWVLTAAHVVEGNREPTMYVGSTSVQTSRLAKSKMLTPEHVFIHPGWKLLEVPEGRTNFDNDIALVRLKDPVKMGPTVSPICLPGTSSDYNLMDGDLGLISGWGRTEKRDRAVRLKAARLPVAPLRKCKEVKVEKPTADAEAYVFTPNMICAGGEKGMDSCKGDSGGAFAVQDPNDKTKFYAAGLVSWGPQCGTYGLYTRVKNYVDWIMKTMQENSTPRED


How the values were obtained:
Serum-derived human C1s [1] = molecular target: T1, Serum-derived human C1s; assay: SPR Biacore T200, 37 C, ratio of KD pH 5.8 / pH 7.4, 1.2 mM CaCl2
Protocol: The binding affinity of all histidine-substituted variants at pH 7.4 and pH 5.8 were determined at 37 degrees C. using Biacore T200 instrument (GE Healthcare). Recombinant Protein A/G (Pierce) was immobilized onto all flow cells of a CM4 sensor chip using amine coupling kit (GE Healthcare). Antibodies and analytes were prepared in 7(+) buffer (20 mM ACES, 150 mM NaCl, 1.2 mM CaCl2, 0.05% Tween 20, 0.005% NaN3, pH 7.4) or 5(+) buffer (20 mM ACES, 150 mM NaCl, 1.2 mM CaCl2), 0.05% Tween 20, 0.005% NaN3, pH 5.8). Each antibody was captured onto the sensor surface by protein A/G. Antibody capture levels were aimed at 200 resonance unit (RU). […] Sensor surface was regenerated each cycle with 10 mM Glycine-HCl pH 1.5. […] An additional dissociation phase at pH 5.8 was integrated immediately after the dissociation phase at pH 7.4. This dissociation rate in 5(+) buffer was determined by processing and fitting data using Scrubber 2.0 (BioLogic Software) curve fitting software. […]

Serum-derived human C1s [2] = molecular target: T1, Serum-derived human C1s; assay: SPR Biacore T200, 37 C, antibody captured on protein A/G, pH 5.8, 1.2 mM CaCl2
Protocol: (§1) The binding affinity of all histidine-substituted variants at pH 7.4 and pH 5.8 were determined at 37 degrees C. using Biacore T200 instrument (GE Healthcare). Recombinant Protein A/G (Pierce) was immobilized onto all flow cells of a CM4 sensor chip using amine coupling kit (GE Healthcare). Antibodies and analytes were prepared in 7(+) buffer (20 mM ACES, 150 mM NaCl, 1.2 mM CaCl2, 0.05% Tween 20, 0.005% NaN3, pH 7.4) or 5(+) buffer (20 mM ACES, 150 mM NaCl, 1.2 mM CaCl2), 0.05% Tween 20, 0.005% NaN3, pH 5.8). Each antibody was captured onto the sensor surface by protein A/G. Antibody capture levels were aimed at 200 resonance unit (RU). […] Sensor surface was regenerated each cycle with 10 mM Glycine-HCl pH 1.5. […] An additional dissociation phase at pH 5.8 was integrated immediately after the dissociation phase at pH 7.4. This dissociation rate in 5(+) buffer was determined by processing and fitting data using Scrubber 2.0 (BioLogic Software) curve fitting software.

Serum-derived human C1s [3] = molecular target: T1, Serum-derived human C1s; assay: SPR Biacore T200, 37 C, antibody captured on protein A/G, pH 7.4, 1.2 mM CaCl2
Protocol: as §1

Serum-derived human C1s [4] = molecular target: T1, Serum-derived human C1s; assay: SPR Biacore T200, 37 C, ratio of dissociation rates pH 5.8 / pH 7.4, 1.2 mM CaCl2
Protocol: as §1

Row | Binder | KD (5.8+)/KD (7.4+) (Serum-derived human C1s [1]) | koff (Serum-derived human C1s [2]) | kon (Serum-derived human C1s [2]) | kon (Serum-derived human C1s [3]) | koff (5.8+ of 775+)/koff (7.4+) (Serum-derived human C1s [4]) | Kd (Serum-derived human C1s [2]) | Kd (Serum-derived human C1s [3])
1 | IPN009VH2/IPN009VK3-SG136 (antibody, human IgG1, kappa, also called parent antibody) heavy: EVMLVESGGGLVKPGGSLRLSCAASGFTFSNYAMSWVRQAPGKGLEWVATISSGGSHTYYLDSVKGRFTISRDNSKDTLYLQMNSLRAEDTALYYCARLFTGYAMDYWGQGTLVTVSSASTKGPSVFPLAPSSKSTSGGTAALGCLVKDYFPEPVTVSWNSGALTSGVHTFPAVLQSSGLYSLSSVVTVPSSSLGTQTYICNVNHKPSNTKVDKKVEPKSCDKTHTCPPCPAPELRRGPSVFLFPPKPKDTLMISRTPEVTCVVVDVSHEDPEVKFNWYVDGVEVHNAKTKPREEQYNSTYRVVSVLTVLHQDWLNGKEYKCKVSNKGLPSSIEKTISKAKGQPREPQVYTLPPSREEMTKNQVSLTCLVKGFYPSDIAVEWESNGQPENNYKTTPPVLDSDGSFFLYSKLTVDKSRWQQGNVFSCSVMHEALHNHYTQKSLSLSP light: QIVLTQSPATLSLSPGERATLSCTASSSVSSSYLHWYQQKPGKAPKLWIYSTSNLASGVPSRFSGSGSGTDYTLTISSLQPEDFATYYCHQYYRLPPITFGQGTKLEIKRTVAAPSVFIFPPSDEQLKSGTASVVCLLNNFYPREAKVQWKVDNALQSGNSQESVTEQDSKDCTYSLSSTLTLSKADYEKHKVYACEVTHQGLSSPVTKSFNRGEC | 0.4 | 0.000162 s⁻¹ | 360000 M⁻¹ s⁻¹ | 344000 M⁻¹ s⁻¹ | 0.2 | – | –
2 | IPN009VH2/IPN93L0023-SG136 (antibody, human IgG1, kappa, name in Kabat numbering, also called IPN00VH2/IPN93L0023-SG136) heavy: EVMLVESGGGLVKPGGSLRLSCAASGFTFSNYAMSWVRQAPGKGLEWVATISSGGSHTYYLDSVKGRFTISRDNSKDTLYLQMNSLRAEDTALYYCARLFTGYAMDYWGQGTLVTVSSASTKGPSVFPLAPSSKSTSGGTAALGCLVKDYFPEPVTVSWNSGALTSGVHTFPAVLQSSGLYSLSSVVTVPSSSLGTQTYICNVNHKPSNTKVDKKVEPKSCDKTHTCPPCPAPELRRGPSVFLFPPKPKDTLMISRTPEVTCVVVDVSHEDPEVKFNWYVDGVEVHNAKTKPREEQYNSTYRVVSVLTVLHQDWLNGKEYKCKVSNKGLPSSIEKTISKAKGQPREPQVYTLPPSREEMTKNQVSLTCLVKGFYPSDIAVEWESNGQPENNYKTTPPVLDSDGSFFLYSKLTVDKSRWQQGNVFSCSVMHEALHNHYTQKSLSLSP light: QIVLTQSPATLSLSPGERATLSCTASSSVSSSYLHWYQQKPGKAPKLWIYSTSNLASGVPSRFSGSGSGTDYTLTISSLQPEDFATYYCHQYYRHPPITFGQGTKLEIKRTVAAPSVFIFPPSDEQLKSGTASVVCLLNNFYPREAKVQWKVDNALQSGNSQESVTEQDSKDCTYSLSSTLTLSKADYEKHKVYACEVTHQGLSSPVTKSFNRGEC | 0.9 | 0.000818 s⁻¹ | 330000 M⁻¹ s⁻¹ | 227000 M⁻¹ s⁻¹ | 1.1 | 2.48 nM | 2.77 nM
3 | IPN009VH2/IPN93L0021-SG136 (antibody, human IgG1, kappa, name in Kabat numbering, The substitution is numbered by Kabat) heavy: EVMLVESGGGLVKPGGSLRLSCAASGFTFSNYAMSWVRQAPGKGLEWVATISSGGSHTYYLDSVKGRFTISRDNSKDTLYLQMNSLRAEDTALYYCARLFTGYAMDYWGQGTLVTVSSASTKGPSVFPLAPSSKSTSGGTAALGCLVKDYFPEPVTVSWNSGALTSGVHTFPAVLQSSGLYSLSSVVTVPSSSLGTQTYICNVNHKPSNTKVDKKVEPKSCDKTHTCPPCPAPELRRGPSVFLFPPKPKDTLMISRTPEVTCVVVDVSHEDPEVKFNWYVDGVEVHNAKTKPREEQYNSTYRVVSVLTVLHQDWLNGKEYKCKVSNKGLPSSIEKTISKAKGQPREPQVYTLPPSREEMTKNQVSLTCLVKGFYPSDIAVEWESNGQPENNYKTTPPVLDSDGSFFLYSKLTVDKSRWQQGNVFSCSVMHEALHNHYTQKSLSLSP light: QIVLTQSPATLSLSPGERATLSCTASSSVSSSYLHWYQQKPGKAPKLWIYSTSNLASGVPSRFSGSGSGTDYTLTISSLQPEDFATYYCHQYHRLPPITFGQGTKLEIKRTVAAPSVFIFPPSDEQLKSGTASVVCLLNNFYPREAKVQWKVDNALQSGNSQESVTEQDSKDCTYSLSSTLTLSKADYEKHKVYACEVTHQGLSSPVTKSFNRGEC | 1.5 | 0.00126 s⁻¹ | 290000 M⁻¹ s⁻¹ | 199000 M⁻¹ s⁻¹ | 1.9 | – | –

Continued, values first:

Row | KD (5.8+)/KD (7.4+) (Serum-derived human C1s [1]) | koff (Serum-derived human C1s [2]) | kon (Serum-derived human C1s [2]) | kon (Serum-derived human C1s [3]) | koff (5.8+ of 775+)/koff (7.4+) (Serum-derived human C1s [4]) | Kd (Serum-derived human C1s [2]) | Kd (Serum-derived human C1s [3]) | Binder
4 | 0.9 | 0.000362 s⁻¹ | 389000 M⁻¹ s⁻¹ | 377000 M⁻¹ s⁻¹ | 0.7 | – | – | IPN92H0033/IPN009VK3-SG136 (antibody, human IgG1, kappa, VH is IPN009VH2 with Y99H (Kabat)) heavy: EVMLVESGGGLVKPGGSLRLSCAASGFTFSNYAMSWVRQAPGKGLEWVATISSGGSHTYYLDSVKGRFTISRDNSKDTLYLQMNSLRAEDTALYYCARLFTGHAMDYWGQGTLVTVSSASTKGPSVFPLAPSSKSTSGGTAALGCLVKDYFPEPVTVSWNSGALTSGVHTFPAVLQSSGLYSLSSVVTVPSSSLGTQTYICNVNHKPSNTKVDKKVEPKSCDKTHTCPPCPAPELRRGPSVFLFPPKPKDTLMISRTPEVTCVVVDVSHEDPEVKFNWYVDGVEVHNAKTKPREEQYNSTYRVVSVLTVLHQDWLNGKEYKCKVSNKGLPSSIEKTISKAKGQPREPQVYTLPPSREEMTKNQVSLTCLVKGFYPSDIAVEWESNGQPENNYKTTPPVLDSDGSFFLYSKLTVDKSRWQQGNVFSCSVMHEALHNHYTQKSLSLSP light: QIVLTQSPATLSLSPGERATLSCTASSSVSSSYLHWYQQKPGKAPKLWIYSTSNLASGVPSRFSGSGSGTDYTLTISSLQPEDFATYYCHQYYRLPPITFGQGTKLEIKRTVAAPSVFIFPPSDEQLKSGTASVVCLLNNFYPREAKVQWKVDNALQSGNSQESVTEQDSKDCTYSLSSTLTLSKADYEKHKVYACEVTHQGLSSPVTKSFNRGEC
5 | 1.3 | 0.000956 s⁻¹ | 221000 M⁻¹ s⁻¹ | 180000 M⁻¹ s⁻¹ | 1.2 | – | – | IPN009VH2/IPN93L0024-SG136 (antibody, human IgG1, kappa, VL is IPN009VK3 with P95H (Kabat)) heavy: EVMLVESGGGLVKPGGSLRLSCAASGFTFSNYAMSWVRQAPGKGLEWVATISSGGSHTYYLDSVKGRFTISRDNSKDTLYLQMNSLRAEDTALYYCARLFTGYAMDYWGQGTLVTVSSASTKGPSVFPLAPSSKSTSGGTAALGCLVKDYFPEPVTVSWNSGALTSGVHTFPAVLQSSGLYSLSSVVTVPSSSLGTQTYICNVNHKPSNTKVDKKVEPKSCDKTHTCPPCPAPELRRGPSVFLFPPKPKDTLMISRTPEVTCVVVDVSHEDPEVKFNWYVDGVEVHNAKTKPREEQYNSTYRVVSVLTVLHQDWLNGKEYKCKVSNKGLPSSIEKTISKAKGQPREPQVYTLPPSREEMTKNQVSLTCLVKGFYPSDIAVEWESNGQPENNYKTTPPVLDSDGSFFLYSKLTVDKSRWQQGNVFSCSVMHEALHNHYTQKSLSLSP light: QIVLTQSPATLSLSPGERATLSCTASSSVSSSYLHWYQQKPGKAPKLWIYSTSNLASGVPSRFSGSGSGTDYTLTISSLQPEDFATYYCHQYYRLHPITFGQGTKLEIKRTVAAPSVFIFPPSDEQLKSGTASVVCLLNNFYPREAKVQWKVDNALQSGNSQESVTEQDSKDCTYSLSSTLTLSKADYEKHKVYACEVTHQGLSSPVTKSFNRGEC
